Patent US6013258A, “Immunogenic peptides from the HPV E7 protein” (priority 1997, dated 2000)

Target: T1, recombinant HLA-A2 (Homo sapiens, UniProt P04439, D140Y/D185E/D98H/E176V/E277Q/G131W/G231S/I119V/I121R/I166T/I218V/N151K/N90K/P208A/P217A/Q86G/Q94H/R138H/R169H)
T1 construct: made in house; host or cells: E. coli
Format: binding
Details: peptide-HLA-A2 complex, monitored by circular dichroism

Substance: A2.2: peptide derived from HPV strain 16 E7 protein, SEQ ID NO:17 (YMLDLQPET) [Peptide A2.2]
- Tm (temperature at which 50% of the refolded complexes are melted): 52.5 degrees Celsius
